Test results from article doi:10.1101/2025.05.22.653117.

Experiments:
[1] = target: MbTEC^PH (R28E) (Monosiga brevicollis); test: FP; details: domain or fragment
[2] = target: MbTEC^PH (R28E) (Monosiga brevicollis); test: fluorescence polarisation
[3] = target: MbTEC^PH (isolated PH domain of Monosiga brevicollis TEC), wild type, labeled with Atto488 (Monosiga brevicollis); test: fluorescence polarisation

Substance | Kd [1] | fold weakening against wild-type MbTEC^PH [2] | Kd [3]
MbTEC^32K (SH3-SH2-kinase module of Monosiga brevicollis TEC), wild type | 22.4 µM |  | 
MbTEC^32K (SH3-SH2-kinase module of Monosiga brevicollis TEC), wild type (domain or fragment) |  | 5 fold | 4 µM
